Tests used:
[1] = target: forty-residue β-amyloid peptide (human Aβ), aged (aggregated) unless said otherwise (human) (UniProt P05067); assay: cell-based or functional assay
[2] = target: T1, BBP1 intracellular loop (pOZ339), Gal4 DNA-binding domain fusion (yeast; human, UniProt P04386 1-147); assay: yeast 2-hybrid, two independently derived clones of each strain against vector
T1 construct: also called BBP1 intracellular region; predicted intracellular domain of BBP1
Text: BBP1ΔC was made by using the pACT2-specific oligo #6 with antisense oligo #9 (5′-CTCGAG TCAAGATATGGGCTTGAAAAAAC). After TA cloning, isolation of the EcoRI-XhoI fragment and cloning into pACT2, the resultant plasmid, pEK219, expressed BBP1 from residue 68 to 175. Sequences encoding the BBP1 intracellular loop were amplified using oligonucleotides #10 (5′-CCTTCC ATGGAAGTGGCAGTCGCATTGTCT) plus #11 (5′-[…] TCAAAACCCTACAGTGCAAAAC). This product, containing BBP1 codons 185 to 217, was digested with NcoI+XhoI and cloned into pAS2 cleaved with NcoI +SalI to generate pOZ339. Construction of all Gα protein expression plasmids utilized the BamHI site near the center of each rat cDNA sequence as the site of fusion in pACT2 (Kang, Y. -S., Kane, J., Kurjan, J., Stadel, J., and Tipper, D. (1990) Mol Cell Biol 10, 2582-2590). Sense primers annealed to sequences 5′ of the BamHI site; antisense primers annealed to sequences 3′ of the stop codon and included a SalI restriction site. Primers were: […]
Structural analysis of BBP1 indicated it contained a structural motif known to be a Gα protein activating sequence in the related G protein-coupled receptors. […] The predicted intracellular domain of BBP1 was expressed as a Gal4 DNA-binding domain with portions of rat Gαs, Gαo, or Gαl2 expressed as Gal4 activation domain fusion proteins. […]

[3] = target: T2, human BAP42 fused to the Gal4 DNA-binding domain (BAP^BD; expression plasmid pEK162) (yeast; human, UniProt P04386 1-147; P05067 672-713); assay: yeast 2-hybrid
T2 construct: The screening strain also expressed free BAP42 (pEK149); also called BAP fusion protein; human BAP fusion protein
Experimental: These fusion proteins were assayed with the BAP fusion protein and responses compared to those of strains expressing the larger BBP1Δtm protein. The BBP1ΔC protein induced a weak Y2H response (compare BBP1ΔC to vector, FIG. 4), but the BBP1ΔN protein, containing the first tm domain and adjacent amino-proximal sequences produced a response only slightly weaker than that observed with BBP1Δtm.
Bioassays: Strains were grown overnight in 2 ml SC medium lacking leucine and tryptophan to a density of approximately 7×10⁷ cells per ml. Cells were counted and 10-fold serial dilutions made from […] in sterile water. These samples were spotted in 5 μl aliquots on SC medium lacking leucine, tryptophan and histidine and containing 25 mM 3-amino-triazole. Plates were incubated at 30° C. for 2 to 3 days. Positive protein/protein interactions were identified by increased prototrophic growth compared to control strains expressing the Gal4 DNA-binding domain fusion protein plus an irrelevant transcriptional activation domain fusion protein (or simply containing the pACT vector without inserted sequences). This assay method was highly reproducible and provided for the detection of subtle inductions of growth mediated by the specific interaction between target proteins. […]

Molecule: BBP1 expressed in transfected cells from the BBP1 expression plasmid pBBP (pOZ363) (receptor)
- % apoptotic nuclei, Ntera2 neurons, 10 µM aged Aβ for 48 hrs [1]: 22.3%
- % apoptotic nuclei, Ntera2 stem cells, 10 µM aged Aβ for 48 hrs [1]: 12.3%
- cell viability after aggregated Aβ peptide for 48 hrs (loss of total cells) (% of total cells) [1]: 22

B1: rat Gαi2 C-terminal region (pOZ348), Gal4 activation domain fusion (other, UniProt P04897 213-355, looked up, not shown: large carriers)
chain: IHCFEGVTAIIFCVALSAYDLVLAEDEEMNRMHESMKLFDSICNNKWFTDTSIILFLNKKDLFEEKITQSPLTICFPEYTGANKYDEAASYIQSKFEDLNKRKDTKEIYTHFTCATDTKNVQFVFDAVTDVIIKNNLKDCGLF
notes: range 213-355; also called Gai2
- binding result [2]: binds

B2: BBP1ΔN (pEK216), Gal4 activation domain fusion (other, not shown: small tags and cut ends)
chain: PKINDATQEPVNCTNYTAHVSCFPAPNITCKDSSGNETHFTGNEVGFFKPISCRNVNGYSYKVAVALSLFLGWLGADRF
notes: Encodes the first tm domain plus the preceding 52 amino acids; also called BBP1?N (so in the source); ?N construct
- binding result [3]: binds

B3: rat Gαs C-terminal region (pOZ345), Gal4 activation domain fusion (other, UniProt P63095 235-394, looked up, not shown: large carriers)
chain: IQCFNDVTAIIFVVASSSYNMVIREDNQTNRLQEALNLFKSIWNNRWLRTISVILFLNKQDLLAEKVLAGKSKIEDYFPEFARYTTPEDATPEPGEDPRVTRAKYFIRDEFLRISTASGDGRHYCYPHFTCAVDTENIRRVFNDCRDIIQRMHLRQYELL
notes: range 235-394; also called Gas
- binding result [2]: binds

From patent publication US20020058267A1 (Pfizer, published 2002)
